Changes are numbered by the printed parent chain.
T1: full length cynomolgus monkey C10orf54 (construct CC4) (cynomolgus monkey, UniProt Q9H7M9 33-311 (human entry))
T1 construct: also called C10orf54 Construct 4
T1 chain: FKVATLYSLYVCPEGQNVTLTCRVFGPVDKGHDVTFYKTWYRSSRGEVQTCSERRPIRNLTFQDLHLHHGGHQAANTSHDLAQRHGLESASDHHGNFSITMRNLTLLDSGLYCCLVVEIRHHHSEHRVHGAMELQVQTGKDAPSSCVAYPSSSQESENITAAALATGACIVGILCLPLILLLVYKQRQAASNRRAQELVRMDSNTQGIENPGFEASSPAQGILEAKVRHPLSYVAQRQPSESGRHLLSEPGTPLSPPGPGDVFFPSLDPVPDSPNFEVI

T2: chimeric C10orf54: first half of IgV mouse and remainder (including loop) human (construct CC8) (human/mouse chimera, UniProt Q9H7M9 33-311)
T2 construct: also called C10orf54 Construct 8; mmabChsC10
T2 chain: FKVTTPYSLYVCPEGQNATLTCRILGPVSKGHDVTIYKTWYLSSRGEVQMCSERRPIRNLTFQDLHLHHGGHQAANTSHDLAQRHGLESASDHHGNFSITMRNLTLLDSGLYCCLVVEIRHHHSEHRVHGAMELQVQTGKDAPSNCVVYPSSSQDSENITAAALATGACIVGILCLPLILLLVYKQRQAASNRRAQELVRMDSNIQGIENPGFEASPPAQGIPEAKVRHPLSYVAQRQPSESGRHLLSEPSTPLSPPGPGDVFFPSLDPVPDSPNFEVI

T3: chimeric C10orf54: human IgV with mouse STALK (construct CC5) (human/mouse chimera)
T3 construct: also called C10orf54 Construct 5; hsIGVmmSTALK
T3 chain: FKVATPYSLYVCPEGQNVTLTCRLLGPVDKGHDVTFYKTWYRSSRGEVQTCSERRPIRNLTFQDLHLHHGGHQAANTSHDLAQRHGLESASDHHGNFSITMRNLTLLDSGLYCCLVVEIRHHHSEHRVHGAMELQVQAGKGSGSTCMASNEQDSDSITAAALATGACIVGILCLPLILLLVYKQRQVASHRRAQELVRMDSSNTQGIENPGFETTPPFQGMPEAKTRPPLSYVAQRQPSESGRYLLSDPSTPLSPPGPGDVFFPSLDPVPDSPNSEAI

T4: chimeric C10orf54: mouse with human loop (construct CC10) (human/mouse chimera, UniProt Q9D659 33-308 (mouse entry))
T4 construct: also called C10orf54 Construct 10; mmC10hsLOOP
T4 chain: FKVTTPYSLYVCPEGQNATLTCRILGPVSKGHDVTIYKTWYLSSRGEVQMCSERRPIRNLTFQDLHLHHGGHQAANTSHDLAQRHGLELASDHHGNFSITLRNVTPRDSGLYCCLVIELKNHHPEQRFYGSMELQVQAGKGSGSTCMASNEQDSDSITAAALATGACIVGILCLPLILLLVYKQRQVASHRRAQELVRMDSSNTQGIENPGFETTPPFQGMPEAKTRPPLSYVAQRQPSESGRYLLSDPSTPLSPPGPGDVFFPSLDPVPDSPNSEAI

T5: C10orf54 (antigen of the KD values in Table 42) (human, UniProt Q9H7M9 33-311, limits assumed)
T5 sequence: T2 chain with T4A, A18V, I24L, S29D, I36F, L42R, M50T

B1: murine monoclonal antibody 5B (antibody, V domains shown)
VH: QVQLQQSGAELVRPGVSVKISCKGSGYTFTDYGMHWVKQSHAKSLEWIGIIDTYYGDATYNQKFKGKATMTVDKSSSTAYMELARLTSEDSAIYYCARRAGNAMDYWGQGTSVTVSS
VL: NIVMTQTPKFLLVSAGDRVTITCKASQSVSNDVAWYQQKPGQSPKLLIYYASNRYTGVPDRFTGSGYGTDFTFTISTVQAEDLAVYFCQQDYSSPRTFGGGTKLEIK
notes: Mouse hybridoma antibody
B2: murine monoclonal antibody 46A (antibody, V domains shown)
VH: B1 VH with S7A, A9G, D52N, N102T
VL: B1 VL with N1S, S93G
notes: Mouse hybridoma antibody
B3: murine monoclonal antibody 146C (antibody, V domains shown)
VH: B1 VH with I50L, Q62H, S77R, V115A
VL: B1 VL with V3A, V33I, K45R
notes: Mouse hybridoma antibody
B4: murine monoclonal antibody 128A (antibody, V domains shown)
VH: B1 VH with I50L, Q62H, S77R, V115A
VL: B1 VL with V3A, V33I, K45R
notes: Mouse hybridoma antibody
B5: murine monoclonal antibody 208A (antibody, V domains shown)
VH: B1 VH with I50V, T59G
VL: B1 VL with N1S
notes: Mouse hybridoma antibody
B6: murine monoclonal antibody 215A (antibody, V domains shown)
VH: EVQLQQSGPELVKPGASMKISCKASGFSFTGYTMNWVKQSHGKNLEWIGLISPYNGGTSYNQKFKGKATLTVDKSSSTAYMELLSLTSEDSAVYYCARRAYGYAMDYWGQGTSVTVSS
VL: QIVLTQSPAIMSASPGEKVTMTCSASSSVSYMFWYQQKPGSSPRLLIYDTSNLASGVPLRFSGSGSGTSYSLTISRMEAEDAATYYCQQWSSYPFTFGSGTKLEIK
notes: Mouse hybridoma antibody
B7: murine monoclonal antibody 26A (antibody, V domains shown)
VH: B6 VH with G42V
VL: B6 VL with F33Y
notes: Mouse hybridoma antibody
B8: murine monoclonal antibody 53A (antibody, V domains shown)
VH: EVQLQQSGPELVKPGASVKMSCKASGYTFTSYFMHWVKQKPGQGLEWIGYIYPYNDGTKYNEKFKGKATLTSDKSSSTAYMELSSLTSEDSAVYYCARFDYDTLRYWGQGTTLTVSS
VL: DVVLTQTPLSLPVNIGDQASISCKSTKSLLNSDGFTYLDWYLQKPGQSPQLLIYLVSNRFSGVPDRFSGSGSGTDFTLKISRVEAEDLGVYYCFQSNYFPWTFGGGTKLEIK
notes: Mouse hybridoma antibody
B9: murine monoclonal antibody 259A (antibody, V domains shown)
VH: B8 VH with E82D
VL: B8 VL with V56I
notes: Mouse hybridoma antibody
B10: murine monoclonal antibody 230A (antibody, V domains shown)
VH: EVQLQQSGPELEKPGASVKISCKASGYSFTGSNMNWVKQNNGKSLEWIGNIDPYYGYTTYNQKFKGKATLTVDKSSSTAYMQLKSLTSEDSAVYYCARDYDYALGYFDVWGAGTTVTVSS
VL: DVVMTQTPLSLPVSLGDQASISCRSSQSLVHSNGNTYLHWYLQKPGQSPKLLIYKVSNRFSGVPDRFSGSGSGTDFTLKISRVEAEDLGVYFCSQSTHVPYTFGGGTKLEIK
notes: Mouse hybridoma antibody
B11: murine monoclonal antibody 76E1 (antibody, V domains shown)
VH: EVQLLQSGPELEKPGASVKISCKASGYSFTGYNMNWVKQSNGKSLEWIGNIDPYYDYTSYNLKFKDKATLTVDKSSSTAYMQLKSLTSEDSAVYYCATSTMITPFDYWGQGTTLTVSS
VL: B10 VL with V3L, L29I, H39E, S81N, F92Y, S94F, S96G, T97S, Y101W
notes: Mouse hybridoma antibody
B12: murine monoclonal antibody 39A (antibody, V domains shown)
VH: QVQLQQSGAELMKPGASVKISCKATGYTFSSNWIEWVKQRPGHGLEWIGEILPGSGSTSYNEKFKGKATFTADTSSNTAYMQLSSLTSEDSAVYYCARWLLYYYAMDYWGQGTSVTVSS
VL: B10 VL with V3L, Q18P, L29I, S32N, H39E, F92Y, S94F, S96G, T97S
notes: Mouse hybridoma antibody
B13: murine monoclonal antibody 124A (antibody, V domains shown)
VH: B12 VH with I48M, Y108F
VL: B10 VL with V3L, L29I, S32N, H39E, F92Y, S94F, S96G, T97S
notes: Mouse hybridoma antibody
B14: murine monoclonal antibody 33A (antibody, V domains shown)
VH: B12 VH with N32Y, S85G, D107V
VL: B10 VL with V3L, L29I, H39E, F92Y, S94F, S96G, T97S
notes: Mouse hybridoma antibody
B15: murine monoclonal antibody 97A (antibody, V domains shown)
VH: B1 VH with I50V, T59S, Y60N
VL: B1 VL with N1S, T20A, S93G
notes: Mouse hybridoma antibody

Biological target: T1, full length cynomolgus monkey C10orf54 …
Assay: flow cytometry, transfected 293t cells, 2 ug/ml; stain = MFI >=20-fold over isotype control
Procedure: (§1) To investigate epitope diversity of the anti-human C10orf54 antibodies, 293t cells were transfected with 1 of 10 different C10orf54 expression constructs that co-express a fluorescent marker. Two days after transfection, cells were stripped from the tissue culture plate, stained with 2 μg/ml anti-human C10orf54 antibody , washed, stained with anti-mouse IgG-Fc Alexa Fluor 647 polyclonal antibody, washed, and stained with the viability dye 4′,6-Diamidino-2-Phenylindole, Dihydrochloride. Upon acquisition of 10,000 live events on a flow cytometer, live cells marked with the fluorescent marker were analyzed for the degree of staining by the anti-human C10orf54 antibody. When the median fluorescence intensity fold-change relative to an isotype control antibody was at least 20-fold, the antibody was considered to stain the C10orf54 expression construct in question.

Binder	binding result
B1	binds
B2	binds
B3	binds
B4	binds
B5	binds
B6	binds
B7	binds
B8	binds
B9	binds
B10	binds
B11	binds
B12	binds
B13	binds
B14	binds

Biological target: T2, chimeric C10orf54: first half of IgV …
Assay: as above
Procedure: as §1

Binder	binding result
B1	binds
B2	binds
B3	binds
B4	binds
B5	binds
B6	binds
B7	binds
B8	binds
B9	binds
B10	binds
B11	binds
B12	binds
B13	binds
B14	binds

Biological target: T3, chimeric C10orf54: human IgV with mouse …
Assay: as above
Procedure: as §1

Binder	binding result
B1	binds
B3	binds
B4	binds
B5	binds
B6	binds
B7	binds
B8	binds
B9	binds
B10	binds
B11	binds
B12	binds
B13	binds
B14	binds

Biological target: T4, chimeric C10orf54: mouse with human …
Assay: as above
Procedure: as §1

Binder	binding result
B1	binds
B3	binds
B4	binds
B5	binds
B7	binds
B10	binds
B14	binds

Each binder was assayed against T5, C10orf54 (antigen of the KD values in …) (assay: method and antigen form not stated).

Binder	Kd
B1	0.974 nM
B2	1.88 nM
B4	0.635 nM
B15	1.99 nM
B5	2.48 nM
B6	1.52 nM
B7	0.677 nM
B8	0.321 nM
B9	0.266 nM
B10	1.05 nM
B11	10.1 nM
B12	5.79 nM
B13	3.61 nM
B14	6.61 nM

— patent US20190177415A1 (PIERRE FABRE MEDICAMENT, published 2019)
